# Measurements as given in IntAct's records for PubMed 29039417.
# B1: Protein PTHB1 (Homo sapiens), Q3SYG4 (parent)
# chain: MSLFKARDWWSTILGDKEEFDQGCLCLANVDNSGNGQDKIIVGSFMGYLRIFSPHPAKTGDGAQAEDLLLEVDLRDPVLQVEVGKFVSGTEMLHLAVLHSRKLCVYSVSGTLGNVEHGNQCQMKLMYEHNLQRTACNMTYGSFGGVKGRDLICIQSMDGMLMVFEQESYAFGRFLPGFLLPGPLAYSSRTDSFLTVSSCQQVESYKYQVLAFATDADKRQETEQQKLGSGKRLVVDWTLNIGEQALDICIVSFNQSASSVFVLGERNFFCLKDNGQIRFMKKLDWSPSCFLPYCSVSEGTINTLIGNHNNMLHIYQDVTLKWATQLPHIPVAVRVGCLHDLKGVIVTLSDDGHLQCSYLGTDPSLFQAPNVQSRELNYDELDVEMKELQKIIKDVNKSQGVWPMTEREDDLNVSVVVSPNFDSVSQATDVEVGTDLVPSVTVKVTLQNRVILQKAKLSVYVQPPLELTCDQFTFEFMTPDLTRTVSFSVYLKRSYTPSELEGNAVVSYSRPTDRNPDGIPRVIQCKFRLPLKLICLPGQPSKTASHKITIDTNKSPVSLLSLFPGFASQSDDDQVNVMGFHFLGGARITVLASKTSQRYRIQSEQFEDLWLITNELILRLQEYFEKQGVKDFACSFSGSIPLQEYFELIDHHFELRINGEKLEELLSERAVQFRAIQRRLLARFKDKTPAPLQHLDTLLDGTYKQVIALADAVEENQGNLFQSFTRLKSATHLVILLIALWQKLSADQVAILEAAFLPLQEDTQELGWEETVDAAISHLLKTCLSKSSKEQALNLNSQLNIPKDTSQLKKHITLLCDRLSKGGRLCLSTDAAAPQTMVMPGGCTTIPESDLEERSVEQDSTELFTNHRHLTAETPRPEVSPLQGVSE
# partner: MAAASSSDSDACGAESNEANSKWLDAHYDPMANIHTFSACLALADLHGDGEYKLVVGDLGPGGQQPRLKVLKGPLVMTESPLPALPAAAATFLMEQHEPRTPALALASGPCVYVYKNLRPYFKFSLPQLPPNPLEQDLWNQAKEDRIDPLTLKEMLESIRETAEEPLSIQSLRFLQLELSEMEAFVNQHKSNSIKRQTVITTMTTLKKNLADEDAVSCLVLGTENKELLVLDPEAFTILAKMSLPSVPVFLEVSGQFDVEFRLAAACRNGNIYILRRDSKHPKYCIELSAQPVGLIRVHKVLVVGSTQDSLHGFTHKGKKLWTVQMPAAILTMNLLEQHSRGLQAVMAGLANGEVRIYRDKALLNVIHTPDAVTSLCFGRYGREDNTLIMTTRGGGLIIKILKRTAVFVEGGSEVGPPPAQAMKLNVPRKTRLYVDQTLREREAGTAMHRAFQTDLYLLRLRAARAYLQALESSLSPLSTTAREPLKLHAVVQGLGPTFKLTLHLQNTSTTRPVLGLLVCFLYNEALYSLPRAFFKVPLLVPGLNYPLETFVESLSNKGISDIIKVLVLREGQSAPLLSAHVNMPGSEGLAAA
# B2: Protein PTHB1 (Homo sapiens), Q3SYG4 (parent)
# chain: B1 chain
# partner: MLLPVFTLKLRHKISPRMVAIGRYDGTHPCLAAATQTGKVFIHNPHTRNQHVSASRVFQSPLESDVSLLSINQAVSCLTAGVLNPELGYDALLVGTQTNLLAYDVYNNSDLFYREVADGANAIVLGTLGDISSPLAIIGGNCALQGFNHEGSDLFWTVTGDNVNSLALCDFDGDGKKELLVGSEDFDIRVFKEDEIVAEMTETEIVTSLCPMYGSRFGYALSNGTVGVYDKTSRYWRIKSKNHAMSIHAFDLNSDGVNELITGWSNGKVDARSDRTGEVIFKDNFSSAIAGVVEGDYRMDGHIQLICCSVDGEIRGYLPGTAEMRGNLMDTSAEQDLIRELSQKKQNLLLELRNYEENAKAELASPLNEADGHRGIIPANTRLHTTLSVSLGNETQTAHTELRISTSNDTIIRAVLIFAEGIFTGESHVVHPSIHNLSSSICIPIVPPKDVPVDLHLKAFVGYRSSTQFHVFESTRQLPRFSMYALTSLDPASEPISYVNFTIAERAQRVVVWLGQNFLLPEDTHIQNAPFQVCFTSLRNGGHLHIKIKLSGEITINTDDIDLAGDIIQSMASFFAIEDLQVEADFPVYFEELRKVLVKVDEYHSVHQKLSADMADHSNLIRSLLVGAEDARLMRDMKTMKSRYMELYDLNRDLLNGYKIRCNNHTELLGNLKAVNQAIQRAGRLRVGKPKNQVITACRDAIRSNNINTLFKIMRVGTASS
# Variants of: B1
# Settings: with bbs1_human BBS1, Q8NFJ9
row,Variant,effect of a mutation on the interaction
1,S828K,with no effect
2,P689K,with no effect
3,L611A,with no effect
4,V485E,with no effect
5,V557A,with no effect
6,C826E,with no effect

# Variants of: B2
# Settings: with bbs2_human BBS2, Q9BXC9
row,Variant,effect of a mutation on the interaction
1,G822E,with no effect
2,A754K,with no effect
3,A754E,with no effect
4,L870A,with no effect
5,L662K,with no effect
6,Q597E,with no effect
7,I657K,with no effect
8,H651E,with no effect
9,H651K,with no effect
10,L491E,with no effect
11,P511K,with no effect
12,S494A,with no effect
13,D850K,with no effect
14,S558A,with no effect
15,F580A,with no effect
16,P479E,with no effect
17,P479A,with no effect
18,P479L,disrupting interaction strength
19,T865E,with no effect
20,L695K,with no effect
21,L695E,with no effect

row,Variant,effect of a mutation on the interaction
1,Y645A,with no effect
2,Y508A,with no effect
3,T445K,with no effect
4,G628E,disrupting interaction strength
5,T549K,with no effect
6,Q705E,with no effect
7,N719K,with no effect
8,L733K,with no effect
9,P463K,with no effect
10,C469E,with no effect
11,L799K,with no effect
12,R678A,with no effect
13,S458K,with no effect
14,G884K,with no effect
15,T482K,with no effect
16,T473A,with no effect
17,E873A,with no effect
18,F472A,with no effect
19,F566K,with no effect
20,A544K,with no effect
21,N800K,with no effect

row,Variant,effect of a mutation on the interaction
1,L452K,with no effect
2,K492A,with no effect
3,I534K,with no effect
4,A690V,disrupting interaction strength
5,A592K,with no effect
6,Q677A,with no effect
7,Q677K,with no effect
8,V734K,with no effect
9,T845E,with no effect
10,L780E,with no effect
11,L780K,with no effect
12,Y460K,with no effect
13,Y460E,with no effect
14,F756K,with no effect
15,P834A,with no effect
16,P834E,with no effect
17,T441A,with no effect
18,L457A,with no effect
19,H694A,with no effect
20,H694S,disrupting interaction strength
21,Y703K,with no effect

row,Variant,effect of a mutation on the interaction
1,D859K,with no effect
2,D859A,with no effect
3,G701E,disrupting interaction strength
4,P689K,with no effect
5,V885E,with no effect
6,K809A,with no effect
7,N614K,with no effect
8,L620K,with no effect
9,T763A,with no effect
10,V417E,with no effect
11,T697C,disrupting interaction strength
12,F864K,with no effect
13,K554S,disrupting interaction strength
14,Q742S,disrupting interaction strength
15,D817E,with no effect
16,R528K,with no effect
17,A832K,with no effect
18,E499K,with no effect
19,Q627E,with no effect
20,V415K,with no effect
21,V415E,with no effect
